# Results from PMC7112362.
# Target: MERS-CoV papain-like cysteine protease (PLpro), His-tagged (MERS-CoV)
# Assay: activity-based probe labelling
row,Substance,percent of the protease labeled after 15 min
1,"K48-linked diUb ""proximal"" activity-based probe (from UniProt P0CG47 1-75; P0CG47 1-75)",50%
2,"K48-linked diUb ""in-between"" activity-based probe (from UniProt P0CG47 1-75; P0CG47 1-76)",50%
